The target of one assay is T1, P9A.
T1 chain: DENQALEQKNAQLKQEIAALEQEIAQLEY
The assay is described as follows: two-hybrid library CCNG1.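 Also: natural log of median RNA to DNA barcode read ratio; higher means stronger binding.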

For a further assay, the target named is T2, 4H40-bN.
T2 chain: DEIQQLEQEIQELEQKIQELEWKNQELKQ
Briefly: two-hybrid library CCNG1.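 Also: natural log of median RNA to DNA barcode read ratio; higher means stronger binding.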

The target of the next assay is T3, 4H3057-bN.
T3 chain: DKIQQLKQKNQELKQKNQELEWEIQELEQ
The assay is described as follows: two-hybrid library CCNG1.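 Also: natural log of median RNA to DNA barcode read ratio; higher means stronger binding.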

In the next assay the target is T4, 4H3277-bN.
T4 chain: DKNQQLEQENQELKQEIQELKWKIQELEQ
The assay is described as follows: two-hybrid library CCNG1.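 Also: natural log of median RNA to DNA barcode read ratio; higher means stronger binding.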

Another assay concerns the target T5, 4H492-bN.
T5 chain: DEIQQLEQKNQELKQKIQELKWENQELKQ
The assay is described as follows: two-hybrid library CCNG1.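 Also: natural log of median RNA to DNA barcode read ratio; higher means stronger binding.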

The target of another assay is T6, 4H319-bN.
T6 chain: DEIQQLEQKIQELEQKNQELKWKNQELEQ
Briefly: two-hybrid library CCNG1.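 Also: natural log of median RNA to DNA barcode read ratio; higher means stronger binding.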

Another assay has as its target T7, 4H741-bN.
T7 chain: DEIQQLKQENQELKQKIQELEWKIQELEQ
The assay is described as follows: two-hybrid library CCNG1.

The target of another assay is T8, 4H477-bN.
T8 chain: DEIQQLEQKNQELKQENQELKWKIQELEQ
Briefly: two-hybrid library CCNG1.

Another assay concerns the target T9, 4H2915-bN.
T9 chain: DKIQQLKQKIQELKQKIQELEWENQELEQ
Briefly: two-hybrid library CCNG1.

The target of the next assay is T10, 4H348-bN.
T10 chain: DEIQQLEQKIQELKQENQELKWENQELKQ
Briefly: two-hybrid library CCNG1.

A further assay addresses T11, O6.
T11 chain: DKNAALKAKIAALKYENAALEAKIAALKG
Briefly: two-hybrid library CCNG1.

In another assay the target is T12, O8.
T12 chain: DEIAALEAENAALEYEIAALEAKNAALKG
Briefly: two-hybrid library CCNG1.

The target in a further assay is T13, O7.
T13 chain: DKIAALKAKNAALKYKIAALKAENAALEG
The assay is described as follows: two-hybrid library CCNG1.

The next assay deals with T14, O9.
T14 chain: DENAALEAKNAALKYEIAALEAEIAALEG
The assay is described as follows: two-hybrid library CCNG1.

A further assay addresses T15, O5.
T15 chain: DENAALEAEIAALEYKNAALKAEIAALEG
Briefly: two-hybrid library CCNG1.

For a further assay, the target named is T16, APC4011-AA.
T16 chain: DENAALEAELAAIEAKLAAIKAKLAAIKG
Briefly: two-hybrid library CCmax. As to conditions: mean of both orientations.

The target of another assay is T17, APC9096-AA.
T17 chain: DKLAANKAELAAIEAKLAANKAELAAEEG
The assay is described as follows: two-hybrid library CCmax. The settings on record: mean of both orientations.

In another assay the target is T18, APC4436-AA.
T18 chain: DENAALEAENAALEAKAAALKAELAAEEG
The assay is described as follows: two-hybrid library CCmax. As to conditions: mean of both orientations.

In the next assay the target is T19, APC4264-AA.
T19 chain: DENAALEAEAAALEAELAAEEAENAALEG
Briefly: two-hybrid library CCmax. As to conditions: mean of both orientations.

The target in the next assay is T20, APC7099-AA.
T20 chain: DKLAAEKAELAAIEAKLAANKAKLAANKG
The assay is described as follows: two-hybrid library CCmax. The settings on record: mean of both orientations.

A further assay has as its target T21, APC232-AA.
T21 chain: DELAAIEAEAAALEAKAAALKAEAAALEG
The assay is described as follows: two-hybrid library CCmax. As to conditions: mean of both orientations.

Another assay deals with T22, APC3645-AA.
T22 chain: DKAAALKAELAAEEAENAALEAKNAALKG
The assay is described as follows: two-hybrid library CCmax. As to conditions: mean of both orientations.

In another assay the target is T23, APC5383-AA.
T23 chain: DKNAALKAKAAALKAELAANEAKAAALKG
The assay is described as follows: two-hybrid library CCmax. The settings on record: mean of both orientations.

In another assay the target is T24, APC9319-AA.
T24 chain: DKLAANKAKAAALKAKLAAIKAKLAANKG
Briefly: two-hybrid library CCmax. The settings on record: mean of both orientations.

Another assay concerns the target T25, APC6108-AA.
T25 chain: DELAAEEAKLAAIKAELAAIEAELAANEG
Briefly: two-hybrid library CCmax. The settings on record: mean of both orientations.

Another assay deals with T26, APC8191-AA.
T26 chain: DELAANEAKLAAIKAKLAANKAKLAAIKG
The assay is described as follows: two-hybrid library CCmax. As to conditions: mean of both orientations.

For another assay, the target named is T27, APC8910-AA.
T27 chain: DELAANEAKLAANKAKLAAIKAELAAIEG
Briefly: two-hybrid library CCmax. The settings on record: mean of both orientations.

A further assay has as its target T28, APC2237-AA.
T28 chain: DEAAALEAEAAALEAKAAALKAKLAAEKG
Briefly: two-hybrid library CCmax.

Another assay addresses T29, APC2405-AA.
T29 chain: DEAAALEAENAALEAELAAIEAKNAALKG
Briefly: two-hybrid library CCmax. As to conditions: mean of both orientations.

B1: P9A (peptide)
chain: DENQALEQKNAQLKQEIAALEQEIAQLEY
B1 yielded an interaction score with P9A of -1.28.

B2: 4H2915-bN (peptide)
chain: DKIQQLKQKIQELKQKIQELEWENQELEQ
Consider B2, for which the interaction score with 4H40-bN is 1.52; in the assay with 4H3057-bN it was -0.568; with 4H3277-bN, -1.62; in the assay with 4H492-bN, -1.44; with 4H319-bN, -3.47; with 4H741-bN, -1.16. In addition, the interaction score with 4H477-bN was -2.75; with 4H2915-bN, 0.918; with 4H348-bN, -0.904.

B3: O5 (peptide)
chain: DENAALEAEIAALEYKNAALKAEIAALEG
Turning to B3, the interaction score with O6 was 1.32; in the assay with O8, -2.4; in the assay with O7, -2.16; in the assay with O9, -2.25; with O5, -2.36.

B4: APC2237-AA (peptide)
chain: DEAAALEAEAAALEAKAAALKAKLAAEKG
As to B4, the interaction score is 1.54 with APC4011-AA; -1.63 in the assay with APC9096-AA; -2.06 with APC4436-AA; -1.65 with APC4264-AA; -1.59 with APC7099-AA; -1.19 with APC232-AA. The interaction score in the assay with APC3645-AA was -1.41; with APC5383-AA, -1.52; in the assay with APC9319-AA it was -2.27; with APC6108-AA it was -1.71; with APC8191-AA it was -1.41; with APC8910-AA it was -1.72. In addition, the interaction score was -1.33 in the assay with APC2237-AA and -1.48 in the assay with APC2405-AA.

Source of the values: article PMC10397247.
